Biological target: T7 RNA polymerase (UniProt P00573)
Assay: cell-based or functional assay

Work on “catalytically-deactivated variant of T7 lysozyme (LysY) (from UniProt P00806 2-151)” yielded a decrease in basal mNeonGreen expression in exponential phase (PT7:mNeonGreen reporter, PurtA:T7pol biosensor strain) of 78%.

Source: patent publication US20190330665A1
